Columns and labels:
[1] = target: soluble recombinant mouse BAFF (mouse) (UniProt Q9WU72)
[2] = target: soluble recombinant mouse BAFF (mouse) (UniProt Q9WU72); remark: listed apart in the source

Chain of UniProt Q9WU72 (Q9WU72 127-309): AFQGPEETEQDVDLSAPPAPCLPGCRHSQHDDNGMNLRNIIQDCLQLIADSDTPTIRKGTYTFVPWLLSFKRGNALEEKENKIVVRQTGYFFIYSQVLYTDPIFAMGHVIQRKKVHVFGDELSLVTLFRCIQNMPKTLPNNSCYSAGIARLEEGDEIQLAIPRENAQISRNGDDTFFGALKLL

Row | Binder | percent of NgR1+ or NgR3+ B-cells isolated from spinal cord of EAE ngr1+/+ mice in S phase (BrdU/7AAD flow cytometry) after 50 ng/mL rBAFF pre-incubated with excess rBAFF-R [1] [%] | percent of NgR1+ or NgR3+ B-cells isolated from spinal cord of EAE ngr1+/+ mice in S phase (BrdU/7AAD flow cytometry) after 50 ng/mL rBAFF pre-incubated with excess NgR-Fc [1] [%] | percent of isolated spinal cord B-cells staying in the G0/G1 phase after rBAFF pre-incubated with excess NgR-Fc [1] [%] | percent of B-cells isolated from spleen entering the S phase after rBAFF pre-incubated with excess NgR-Fc [2] [%] | percent of B-cells isolated from spleen halted in the G0/G1 phase after rBAFF pre-incubated with excess NgR-Fc [2] [%]
1 | recombinant BAFF-R (receptor) MGARRLRVRSQRSRDSSVPTQCNQTECFDPLVRNCVSCELFHTPDTGHTSSLEPGTALQPQEGSALRPDVALLVGAPALLGLILALTLVGLVSLVSWRWRQQLRTASPDTSEGVQQESLENVFVPSSETPHASAPTWPPLKEDADSALPRHSVPVPATELGSTELVTTKTAGPEQ | 27.7 |  |  |  | 
2 | NgR1-Fc (Fc fusion) CPGACVCYNEPKVTTSCPQQGLQAVPTGIPASSQRIFLHGNRISHVPAASFQSCRNLTILWLHSNALARIDAAAFTGLTLLEQLDLSDNAQLHVVDPTTFHGLGHLHTLHLDRCGLRELGPGLFRGLAALQYLYLQDNNLQALPDNTFRDLGNLTHLFLHGNRIPSVPEHAFRGLHSLDRLLLHQNHVARVHPHAFRDLGRLMTLYLFANNLSMLPAEVLMPLRSLQYLRLNDNPWVCDCRARPLWAWLQKFRGSSSEVPCNLPQRLADRDLKRLAASDLEGCAVASGPFRPIQTSQLTDEELLSLPKCCQPDAADKASVLEPGRPASAGNALKGRVPPGDTPPGNGSGPRHINDSPFGTLPSSAEPPLTALRPGGSEPPGLPTTGPRRRPGCSRKNRTRSHCRLGQAGSGASGTGDAEGS |  | 20.6 | 55.8 | 8 | 85.5

Source: PMC7858582
